Where a chain is given by its changes, count along the chain named.

In assay [1] the target is T1, human ZIP12 extracellular domain expressed as a GST fusion protein (human, UniProt Q504Y0 1-202).
T1 construct: also called hZIP12-ECD-GST; huZIP12-ECD-GST; not shown: glutathione S-transferase (GST) fusion partner
As to the kind of experiment: ELISA-based reactivity screening, 63A11 lineage (FIG. 6). On the technique in general: In an ELISA, binding on a coated surface is turned into a signal by an enzyme label.

In assay [2] the target is T2, human ZIP4 extracellular domain GST fusion (human, UniProt Q6P5W5 23-327).
T2 construct: also called hZIP4-ECD-GST; huZIP4-ECD-GST; not shown: glutathione S-transferase (GST) fusion partner
T2 sequence: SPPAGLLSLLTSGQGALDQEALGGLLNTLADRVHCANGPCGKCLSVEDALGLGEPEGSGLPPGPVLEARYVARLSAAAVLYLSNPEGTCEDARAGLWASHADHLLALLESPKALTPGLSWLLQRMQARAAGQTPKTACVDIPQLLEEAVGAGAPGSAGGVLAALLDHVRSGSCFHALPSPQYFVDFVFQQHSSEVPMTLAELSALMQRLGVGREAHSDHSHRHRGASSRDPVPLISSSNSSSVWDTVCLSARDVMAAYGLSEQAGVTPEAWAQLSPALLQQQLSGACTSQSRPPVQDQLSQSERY
Described as above.

In assay [3] the target is T3, human ZIP12 on human ZIP12 expressing transfectant cells (human, UniProt Q504Y0 1-691).
T3 construct: Zinc transporter; also called ZIP12 transfected cells
As to the kind of experiment: flow cytometry-based reactivity screening, 63A11 lineage (FIG. 7). For orientation: In flow cytometry, cells or beads pass a laser one at a time.

Assay [4] deals with T4, ZIP4 as tested by flow cytometry (human, UniProt Q6P5W5 23-647).
T4 sequence: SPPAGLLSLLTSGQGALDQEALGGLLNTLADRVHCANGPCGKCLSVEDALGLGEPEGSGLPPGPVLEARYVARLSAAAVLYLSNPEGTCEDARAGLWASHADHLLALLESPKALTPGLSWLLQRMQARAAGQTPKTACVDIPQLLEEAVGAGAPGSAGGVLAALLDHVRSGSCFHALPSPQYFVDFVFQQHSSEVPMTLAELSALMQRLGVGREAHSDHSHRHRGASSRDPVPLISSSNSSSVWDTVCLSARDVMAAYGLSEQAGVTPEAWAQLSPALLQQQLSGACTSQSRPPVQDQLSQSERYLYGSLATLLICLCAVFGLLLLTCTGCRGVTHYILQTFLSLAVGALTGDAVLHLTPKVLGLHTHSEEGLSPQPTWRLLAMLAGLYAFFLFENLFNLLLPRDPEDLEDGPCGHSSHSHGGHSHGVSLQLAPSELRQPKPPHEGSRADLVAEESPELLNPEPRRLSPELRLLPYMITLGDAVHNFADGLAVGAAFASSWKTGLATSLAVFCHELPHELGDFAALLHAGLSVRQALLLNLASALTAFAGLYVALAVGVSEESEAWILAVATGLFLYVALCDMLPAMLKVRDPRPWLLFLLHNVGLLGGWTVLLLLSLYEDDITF
The description is as above.

Assay [5] addresses T1, human ZIP12 extracellular domain …. Put plainly: ELISA-based reactivity screening, 51B12 lineage (FIG. 9).
The target in assay [6] is T2, human ZIP4 extracellular domain GST …. The assay is described as above.

B1: 63A11 parental antibody (antibody, human IgG1, kappa, V domains shown)
VH: EVQLVESGGGLVKPGGSRKLSCAASGFTFSDHGMHWVRQAPEKGLEWVAYISSGSSAIFYADTVKGRFTMSRDNAKNTLFLQMTSLRSEDTAMYFCARWTNLYAMDYWGQGTSVTVSS
VL: DIVLTQSPASLAVSLGQRATISCRASKSVSTSGYSYMHWYQQKPGQPPKLLIYLASNLESGVPARFSGSGSGTDFTLNIHPVEEEDAATYYCQHSRELPLTFGAGTKLELKR
notes: the full chains it gives are the chimeric ones; also called 19214; parent antibody
B1: the binding result is listed as “binds” in assay [1], “no binding” in assay [2], “binds” in assay [3] and “no binding” in assay [4].

B2: 51B12 parental antibody (antibody, human IgG1, kappa, V domains shown)
VH: B1 VH with H32Y, S55G, S56T, A57T, F59Y, M70I, F95Y
VL: B1 VL with L50F, L98V, L100Y, A104G, L110I
notes: also called 19213; parent antibody
As to B2, the figures for the binding result in assay [5] and in assay [6] were “binds” and “no binding”, respectively.
